Starred links: 1 amine or outer side, 2 acyl side, 3 side chain; linkers in the order of their positions; H or OH if unused. Non-standard residues stand in square brackets, D forms with d. Residues, ends and D or L forms follow the SMILES beside them. Groups on a side chain read outwards from the residue. No end group written: not given here. *: point of attachment. C18 diacid = O=C(O)CCCCCCCCCCCCCCCCC(=O)*; γGlu = O=C(O)[C@H](CCC(=O)[*:2])N[*:1]; Palmitoyl = CCCCCCCCCCCCCCCC(=O)*; AEEA = NCCOCCOCC(=O)O; Aib = CC(C)(N)C(=O)O
T1: human CRF2α receptor (Homo sapiens, UniProt Q13324)
T1 construct: expressed in transfected cells; host or cells: TeloHEAC
T1 sequence (Q13324 1-411): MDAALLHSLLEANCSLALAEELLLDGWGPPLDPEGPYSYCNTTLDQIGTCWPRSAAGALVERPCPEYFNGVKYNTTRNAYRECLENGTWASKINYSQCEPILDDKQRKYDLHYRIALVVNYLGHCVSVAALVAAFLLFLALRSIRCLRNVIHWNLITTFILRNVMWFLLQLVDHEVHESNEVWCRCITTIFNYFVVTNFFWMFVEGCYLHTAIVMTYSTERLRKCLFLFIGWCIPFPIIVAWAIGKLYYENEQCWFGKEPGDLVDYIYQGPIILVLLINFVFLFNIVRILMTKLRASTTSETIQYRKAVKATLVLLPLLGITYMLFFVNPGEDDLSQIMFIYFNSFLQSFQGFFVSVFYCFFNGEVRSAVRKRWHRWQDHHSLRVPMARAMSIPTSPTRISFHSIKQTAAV

B1: SEQ ID NO: 83 (peptide)
peptide: IVLSLD[dV]PIGLK([AEEA-AEEA-γGlu-C18 diacid])QILLKQERQKK[Aib]REQAETNKRILERV-NH2
modifications: N-terminus assumed
SMILES: CC[C@H](C)[C@H](N)C(=O)N[C@H](C(=O)N[C@@H](CC(C)C)C(=O)N[C@@H](CO)C(=O)N[C@@H](CC(C)C)C(=O)N[C@@H](CC(=O)O)C(=O)N[C@@H](C(=O)N1CCC[C@H]1C(=O)N[C@H](C(=O)NCC(=O)N[C@@H](CC(C)C)C(=O)N[C@@H](CCCCNC(=O)COCCOCCNC(=O)COCCOCCNC(=O)CC[C@H](NC(=O)CCCCCCCCCCCCCCCCC(=O)O)C(=O)O)C(=O)N[C@@H](CCC(N)=O)C(=O)N[C@H](C(=O)N[C@@H](CC(C)C)C(=O)N[C@@H](CC(C)C)C(=O)N[C@@H](CCCCN)C(=O)N[C@@H](CCC(N)=O)C(=O)N[C@@H](CCC(=O)O)C(=O)N[C@@H](CCCNC(=N)N)C(=O)N[C@@H](CCC(N)=O)C(=O)N[C@@H](CCCCN)C(=O)N[C@@H](CCCCN)C(=O)NC(C)(C)C(=O)N[C@@H](CCCNC(=N)N)C(=O)N[C@@H](CCC(=O)O)C(=O)N[C@@H](CCC(N)=O)C(=O)N[C@@H](C)C(=O)N[C@@H](CCC(=O)O)C(=O)N[C@H](C(=O)N[C@@H](CC(N)=O)C(=O)N[C@@H](CCCCN)C(=O)N[C@@H](CCCNC(=N)N)C(=O)N[C@H](C(=O)N[C@@H](CC(C)C)C(=O)N[C@@H](CCC(=O)O)C(=O)N[C@@H](CCCNC(=N)N)C(=O)N[C@H](C(N)=O)C(C)C)[C@@H](C)CC)[C@@H](C)O)[C@@H](C)CC)[C@@H](C)CC)C(C)C)C(C)C
B2: SEQ ID NO: 84 (peptide)
peptide: IVLSLDVPIKLK([AEEA-AEEA-γGlu-C18 diacid])QKLLEQEKQKKQREQAETNKQILAQV-NH2
modifications: N-terminus assumed
SMILES: CC[C@H](C)[C@H](N)C(=O)N[C@H](C(=O)N[C@@H](CC(C)C)C(=O)N[C@@H](CO)C(=O)N[C@@H](CC(C)C)C(=O)N[C@@H](CC(=O)O)C(=O)N[C@H](C(=O)N1CCC[C@H]1C(=O)N[C@H](C(=O)N[C@@H](CCCCN)C(=O)N[C@@H](CC(C)C)C(=O)N[C@@H](CCCCNC(=O)COCCOCCNC(=O)COCCOCCNC(=O)CC[C@H](NC(=O)CCCCCCCCCCCCCCCCC(=O)O)C(=O)O)C(=O)N[C@@H](CCC(N)=O)C(=O)N[C@@H](CCCCN)C(=O)N[C@@H](CC(C)C)C(=O)N[C@@H](CC(C)C)C(=O)N[C@@H](CCC(=O)O)C(=O)N[C@@H](CCC(N)=O)C(=O)N[C@@H](CCC(=O)O)C(=O)N[C@@H](CCCCN)C(=O)N[C@@H](CCC(N)=O)C(=O)N[C@@H](CCCCN)C(=O)N[C@@H](CCCCN)C(=O)N[C@@H](CCC(N)=O)C(=O)N[C@@H](CCCNC(=N)N)C(=O)N[C@@H](CCC(=O)O)C(=O)N[C@@H](CCC(N)=O)C(=O)N[C@@H](C)C(=O)N[C@@H](CCC(=O)O)C(=O)N[C@H](C(=O)N[C@@H](CC(N)=O)C(=O)N[C@@H](CCCCN)C(=O)N[C@@H](CCC(N)=O)C(=O)N[C@H](C(=O)N[C@@H](CC(C)C)C(=O)N[C@@H](C)C(=O)N[C@@H](CCC(N)=O)C(=O)N[C@H](C(N)=O)C(C)C)[C@@H](C)CC)[C@@H](C)O)[C@@H](C)CC)C(C)C)C(C)C

Legend:
[1] = molecular target: T1, human CRF2α receptor; assay: cAMP agonism at human CRF2 α receptor in TeloHEAC cells (Example 7); format: cell-based; conditions: cAMP HTRF, TeloHEAC cells stably expressing human CRF2 α, 0% HSA; read-out: EC50 [nM], 0% HSA
Description: Agonism of compounds for human corticotropin-releasing factor 2α (CRF2 α receptor) was determined by functional assays measuring CAMP response of a TeloHEAC cell line stably expressing human CRF2 α receptor.
Cells were grown in a T175 culture flask placed at 37° C. to near confluence in medium (DMEM/10% FBS) and collected in 2 ml vials in cell culture medium containing 10% DMSO in a concentration of 10-50 million cells/ml. Each vial contained 1.8 ml cells. The vials were slowly frozen to −80° C. in isopropanol and then transferred in liquid nitrogen for storage. Prior to use, frozen cells were thawed quickly at 37° C. and washed (5 min at 900 rpm) with 20 ml cell buffer (1×HBSS; 20 mM HEPES; 0% or 0.1% HSA). Cells were resuspended in assay buffer (cell buffer plus 2 mM IBMX) and adjusted to a cell density of 1 million cells/ml. For measurement, 5 μl cells (final […]) and 5 μL of test compound were added to a 384-well plate, followed by incubation for 30 minutes at room temperature.
The CAMP content of cells was determined using a kit from Cisbio Corp. (cat. no. 62AM4PEC) based on HTRF (Homogenous Time Resolved Fluorescence). After addition of HTRF reagents diluted in lysis buffer (kit components), the plates were incubated for 1 h, followed by measurement of the fluorescence ratio at 665/620 nm. The percent activity value (E %) was calculated by setting 1000 nM of urocortin 2 (UCN2) as 100%. The in vitro potency of the compounds was quantified by determining the concentrations that caused 50% activation of maximal response (EC50).

[2] = molecular target: human corticotropin-releasing factor 2α (CRF2 α receptor) (human), Q13324; assay: cell-based or functional assay

Molecule | EC50 [1] | EC50 [nM], 0% HSA [2] | EC50 [nM], 0.1% HSA [2]
CCCCCCCCCCCCCCCC(=O)N[C@@H](CCC(=O)NCCCC[C@H](NC(=O)[C@H](CC(C)C)NC(=O)CNC(=O)[C@@H](NC(=O)[C@@H]1CCCN1C(=O)[C@@H](NC(=O)[C@H](CC(=O)O)NC(=O)[C@H](CC(C)C)NC(=O)[C@H](CO)NC(=O)[C@H](CC(C)C)NC(=O)[C@@H](NC(=O)[C@@H](N)[C@@H](C)CC)C(C)C)C(C)C)[C@@H](C)CC)C(=O)N[C@@H](CCC(N)=O)C(=O)N[C@H](C(=O)N[C@@H](CC(C)C)C(=O)N[C@@H](CC(C)C)C(=O)N[C@@H](CCC(=O)O)C(=O)N[C@@H](CCC(N)=O)C(=O)N[C@@H](CCC(=O)O)C(=O)N[C@@H](CCCCN)C(=O)N[C@@H](CCC(N)=O)C(=O)N[C@@H](CCC(=O)O)C(=O)N[C@@H](CCCCN)C(=O)N[C@@H](CCC(=O)O)C(=O)N[C@@H](CCCCN)C(=O)N[C@@H](CCC(N)=O)C(=O)N[C@@H](CCC(N)=O)C(=O)N[C@@H](C)C(=O)N[C@@H](CCC(=O)O)C(=O)N[C@H](C(=O)N[C@@H](CC(N)=O)C(=O)N[C@@H](C)C(=O)N[C@@H](CCC(N)=O)C(=O)N[C@H](C(=O)N[C@@H](CC(C)C)C(=O)N[C@@H](C)C(=O)N[C@@H](CCC(N)=O)C(=O)N[C@H](C(N)=O)C(C)C)[C@@H](C)CC)[C@@H](C)O)[C@@H](C)CC)C(=O)O [compound 1] (H-IVLSLDVPIGLK([γGlu-Palmitoyl])QILLEQEKQEKEKQQAETNAQILAQV-NH2; N-terminus assumed) | 0.01 nM |  | 
CCCCCCCCCCCCCCCC(=O)N[C@@H](CCC(=O)NCCCC[C@H](NC(=O)[C@H](CC(C)C)NC(=O)[C@H](CCCCN)NC(=O)[C@@H](NC(=O)[C@@H]1CCCN1C(=O)[C@H](NC(=O)[C@H](CC(=O)O)NC(=O)[C@H](CC(C)C)NC(=O)[C@H](CO)NC(=O)[C@H](CC(C)C)NC(=O)[C@@H](NC(=O)[C@@H](N)[C@@H](C)CC)C(C)C)C(C)C)[C@@H](C)O)C(=O)N[C@@H](CCC(N)=O)C(=O)N[C@@H](CCCCN)C(=O)N[C@@H](CC(C)C)C(=O)N[C@@H](CC(C)C)C(=O)N[C@@H](CCCCN)C(=O)N[C@@H](CCC(N)=O)C(=O)N[C@@H](CCC(=O)O)C(=O)N[C@@H](CCCNC(=N)N)C(=O)N[C@@H](CCC(N)=O)C(=O)N[C@@H](CCCNC(=N)N)C(=O)N[C@@H](CCCCN)C(=O)N[C@@H](CCC(=O)O)C(=O)N[C@@H](CCCNC(=N)N)C(=O)N[C@@H](CCC(=O)O)C(=O)N[C@@H](CCC(N)=O)C(=O)N[C@@H](C)C(=O)N[C@@H](CCC(=O)O)C(=O)N[C@@H](CCCCN)C(=O)N[C@@H](CC(N)=O)C(=O)NC(C)(C)C(=O)N[C@@H](CCCNC(=N)N)C(=O)N[C@H](C(=O)N[C@@H](CC(C)C)C(=O)N[C@@H](CCC(=O)O)C(=O)N[C@@H](CCCNC(=N)N)C(=O)N[C@H](C(N)=O)C(C)C)[C@@H](C)CC)C(=O)O [compound 31] (H-IVLSLD[dV]PTKLK([γGlu-Palmitoyl])QKLLKQERQRKEREQAEKN[Aib]RILERV-NH2; N-terminus assumed) | 0.01 nM |  | 
CCCCCCCCCCCCCCCC(=O)N[C@@H](CCC(=O)NCCCC[C@H](NC(=O)[C@H](CC(C)C)NC(=O)[C@H](CCCCN)NC(=O)[C@@H](NC(=O)[C@@H]1CCCN1C(=O)[C@H](NC(=O)[C@H](CC(=O)O)NC(=O)[C@H](CC(C)C)NC(=O)[C@H](CO)NC(=O)[C@H](CC(C)C)NC(=O)[C@@H](NC(=O)[C@@H](N)[C@@H](C)CC)C(C)C)C(C)C)[C@@H](C)O)C(=O)N[C@@H](CCC(N)=O)C(=O)N[C@@H](CCCCN)C(=O)N[C@@H](CC(C)C)C(=O)N[C@@H](CC(C)C)C(=O)N[C@@H](CCCCN)C(=O)N[C@@H](CCC(N)=O)C(=O)N[C@@H](CCC(=O)O)C(=O)N[C@@H](CCCNC(=N)N)C(=O)N[C@@H](CCC(N)=O)C(=O)N[C@@H](CCCNC(=N)N)C(=O)N[C@@H](CCCCN)C(=O)N[C@@H](CCC(=O)O)C(=O)N[C@@H](CCCNC(=N)N)C(=O)N[C@@H](CCC(=O)O)C(=O)N[C@@H](CCC(N)=O)C(=O)N[C@@H](C)C(=O)N[C@@H](CCC(=O)O)C(=O)N[C@@H](CCCCN)C(=O)N[C@@H](CC(N)=O)C(=O)N[C@H](C(=O)N[C@@H](CCCNC(=N)N)C(=O)N[C@H](C(=O)N[C@@H](CC(C)C)C(=O)N[C@@H](CCC(=O)O)C(=O)N[C@@H](CCCNC(=N)N)C(=O)N[C@H](C(N)=O)C(C)C)[C@@H](C)CC)[C@@H](C)O)C(=O)O [compound 33] (H-IVLSLD[dV]PTKLK([γGlu-Palmitoyl])QKLLKQERQRKEREQAEKNTRILERV-NH2) | 0.2 nM |  | 
B1 |  | 0.07 nM | 2.99 nM
B2 |  | 1.85 nM | 61.7 nM

— patent publication US12679878B2, “CRF2 receptor agonists and their use in therapy” (SANOFI, priority 2020, dated 2026)
